Reference: the supplement of paper PMC7877785
± gives the uncertainty stated by the source.

Assay: self-splicing fitness, log relative to wild type (ln ratio); higher = more splicing; Tetrahymena group I intron in knt gene, E. coli kanamycin selection, DiMSum; sequences stand for … in CUCUCU…GGAGGGAAAAGUUAUCAGGCAUGCACCUGGUAGCUAGUCUUUAAACCAAUAGAUUGCAUCGGUUUAAAAGGCAAGACCGUCAAAUUGCGGGAAAGGGGUCAACAGCCGUUCAGUACCAAGUCUCAGGGGAAACUUUGAGAUGGCCUUGCAAAGGGUAUGGUAAUAAGCUGACGGACAUGGUCCUAACCACGCAGCCAAGUCCUAAGUCAACAGAUCUUCUGUUGAUAUGGAUGCAGUUCACAGACUAAAUGUCGGUCGGGGAAGAUGUAUUCUUCUCAUAAGAUAUAGUCGGACCUCUCCUUAAUGGGAGCUAGCGGAUGAAGUGAUGCAACACUGGAGCCGCUGGGAACUAAUUUGUAUGCGAAAGUAUAUUGAUUAGUUUUGGAGUACUCGUGGUCG
Outline: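 DiMSum derived fitness as the error-weighted combination of fold changes across replicates, kanamycin versus no kanamycin, normalised to wild type. E. coli BL21(DE3) held the library, which randomised all eight P1ex-region intron nucleotides within the knt kanamycin-resistance gene on pET-22b(+). Six replicate transformations grew overnight at 37°C or 30°C on LB agar with or without 25 μg/mL kanamycin, also containing 100 μg/mL carbenicillin, 50 μM IPTG and 0.2% rhamnose, and pooled colonies were amplicon-sequenced on an Illumina HiSeq 2500.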

Row | Sequence | self-splicing fitness (ln) (30 °C) | self-splicing fitness (ln) (37 °C)
1 | UCGAAGCAAUAUUACGGGGA | -1.17 ± 0.13 | -0.644 ± 0.13
2 | CGGGAGCAAUAUUACGCGGU | – | -1.72 ± 0.29
3 | UUCUAGCAAUAUUACGACCA | -0.559 ± 0.15 | -0.269 ± 0.14
4 | AGGAAGCAAUAUUACGAGGC | -3.01 ± 0.3 | -2.31 ± 0.34
5 | CCUGAGCAAUAUUACGUGGU | -3.09 ± 0.16 | -2.94 ± 0.21
6 | CCUUAGCAAUAUUACGAUUA | -2.28 ± 0.28 | -2.61 ± 0.32
7 | UUGAAGCAAUAUUACGCGGU | -2.94 ± 0.16 | -2.3 ± 0.19
8 | ACAGAGCAAUAUUACGUCUC | -3.77 ± 0.19 | -2.4 ± 0.17
9 | GGUCAGCAAUAUUACGCCUC | -0.643 ± 0.12 | 0.0345 ± 0.14
10 | CCAAAGCAAUAUUACGGGCC | -2.51 ± 0.46 | -2.23 ± 0.42
11 | GAUAAGCAAUAUUACGCCGU | -0.976 ± 0.15 | -0.545 ± 0.17
12 | GUCAAGCAAUAUUACGCUUA | -2.07 ± 0.14 | -0.67 ± 0.12
13 | UGAGAGCAAUAUUACGAUCG | -2.1 ± 0.13 | -2.12 ± 0.17
14 | UCUGAGCAAUAUUACGCUCA | -2.29 ± 0.24 | -2.09 ± 0.28
15 | CCAUAGCAAUAUUACGGUCC | -2.72 ± 0.26 | -1.99 ± 0.42
16 | UCCGAGCAAUAUUACGGCAU | -2.13 ± 0.13 | -1.62 ± 0.097
17 | CGACAGCAAUAUUACGACUC | -2.83 ± 0.18 | -1.18 ± 0.15
18 | GCGGAGCAAUAUUACGCAAG | -2.73 ± 0.38 | -2.3 ± 0.31
19 | AAAGAGCAAUAUUACGAUCC | – | -1.6 ± 0.32
20 | CAGGAGCAAUAUUACGAUCU | – | -2.45 ± 0.45
21 | GGCCAGCAAUAUUACGGUGA | -0.376 ± 0.057 | 0.327 ± 0.076
22 | UGACAGCAAUAUUACGCCAA | -1.51 ± 0.14 | -0.461 ± 0.12
23 | GGCCAGCAAUAUUACGGCAA | -0.216 ± 0.082 | -0.645 ± 0.087
24 | AAAAAGCAAUAUUACGAUGG | -2.81 ± 0.12 | -0.923 ± 0.11
25 | CCCAAGCAAUAUUACGCCAC | -2.48 ± 0.25 | -1.49 ± 0.22
26 | AUCUAGCAAUAUUACGAUUC | -2.85 ± 0.18 | -1.23 ± 0.16

Row | Sequence | self-splicing fitness (ln) (30 °C) | self-splicing fitness (ln) (37 °C)
27 | GGAGAGCAAUAUUACGGAUG | – | -1.45 ± 0.35
28 | GACCAGCAAUAUUACGGCUU | -0.0255 ± 0.055 | -0.293 ± 0.07
29 | UGAAAGCAAUAUUACGUGAA | -1.3 ± 0.07 | -1.5 ± 0.085
30 | CGGUAGCAAUAUUACGUGCC | -1.18 ± 0.14 | -4.06 ± 0.34
31 | CGCCAGCAAUAUUACGCCUC | -3.25 ± 0.32 | -0.661 ± 0.29
32 | CCCUAGCAAUAUUACGCACA | -2.5 ± 0.14 | -1.97 ± 0.15
33 | CCCCAGCAAUAUUACGCGCU | -3.31 ± 0.12 | -2.45 ± 0.21
34 | CUCGAGCAAUAUUACGGGCG | -2.65 ± 0.17 | -2.1 ± 0.25
35 | UGUAAGCAAUAUUACGGCCU | -1.08 ± 0.1 | -0.452 ± 0.12
36 | AUAUAGCAAUAUUACGGGCU | -2.22 ± 0.17 | -1.6 ± 0.21
37 | CCCCAGCAAUAUUACGGCUC | -3.43 ± 0.18 | -2.75 ± 0.33
38 | GCCUAGCAAUAUUACGCCGG | – | -3.09 ± 0.37
39 | GUGCAGCAAUAUUACGGUCA | -1.46 ± 0.12 | -1.16 ± 0.11
40 | UCUAAGCAAUAUUACGCUAA | -3.04 ± 0.19 | -1.84 ± 0.18
41 | AAUAAGCAAUAUUACGUAGG | -2.11 ± 0.16 | -0.935 ± 0.17
42 | GAUUAGCAAUAUUACGAUGA | -1.8 ± 0.13 | 0.00201 ± 0.11
43 | UUUCAGCAAUAUUACGUCUA | -0.33 ± 0.077 | 0.101 ± 0.079
44 | CAUGAGCAAUAUUACGCUGA | -3.24 ± 0.18 | -3.09 ± 0.23
45 | UGUGAGCAAUAUUACGAAUU | -4.64 ± 0.46 | -1.8 ± 0.45
46 | CCUCAGCAAUAUUACGGCUG | -3.84 ± 0.21 | -2.36 ± 0.18
47 | GGGUAGCAAUAUUACGUAUU | -0.286 ± 0.07 | -1.06 ± 0.11
48 | AUUGAGCAAUAUUACGGGAA | -3.22 ± 0.37 | -3.86 ± 0.46
49 | UAUUAGCAAUAUUACGCUCC | -2.75 ± 0.35 | –
50 | UGCUAGCAAUAUUACGUGCG | -1.94 ± 0.1 | -1.7 ± 0.12
51 | UAGAAGCAAUAUUACGGCGG | -0.497 ± 0.099 | 0.388 ± 0.12
52 | CUGAAGCAAUAUUACGGGCA | -3.04 ± 0.22 | -1.25 ± 0.2

Row | Sequence | self-splicing fitness (ln) (30 °C) | self-splicing fitness (ln) (37 °C)
53 | CUAAAGCAAUAUUACGCGAU | -0.384 ± 0.051 | 0.349 ± 0.062
54 | CGAGAGCAAUAUUACGUGGG | -2.27 ± 0.35 | -1.42 ± 0.28
55 | GUUGAGCAAUAUUACGUCGU | -3.25 ± 0.39 | –
56 | AGAGAGCAAUAUUACGGCUU | -1.65 ± 0.16 | -1.15 ± 0.25
57 | ACAGAGCAAUAUUACGUUAG | -3.09 ± 0.16 | -2.87 ± 0.2
58 | GGAUAGCAAUAUUACGAUAG | -2.63 ± 0.23 | -2.86 ± 0.47
59 | AAGCAGCAAUAUUACGUUCC | -1.73 ± 0.11 | -1.54 ± 0.17
60 | UGCUAGCAAUAUUACGCCCU | -0.725 ± 0.27 | -0.338 ± 0.27
61 | GGAAAGCAAUAUUACGCUCG | -0.352 ± 0.15 | 0.329 ± 0.17
62 | AUCAAGCAAUAUUACGAAUU | -3.12 ± 0.14 | -1.21 ± 0.14
63 | CGUGAGCAAUAUUACGGUCG | -1.17 ± 0.083 | -0.688 ± 0.13
64 | CCGGAGCAAUAUUACGCCCG | -1.86 ± 0.41 | –
65 | UUAGAGCAAUAUUACGUCCG | -2.38 ± 0.24 | -1.99 ± 0.34
66 | UUAGAGCAAUAUUACGUAAC | -2.76 ± 0.39 | -1.73 ± 0.49
67 | UGCGAGCAAUAUUACGAGCC | – | -1.67 ± 0.43
68 | GCCUAGCAAUAUUACGACAC | -1.06 ± 0.21 | -0.38 ± 0.27
69 | GAAAAGCAAUAUUACGAAUG | -1.89 ± 0.07 | -1.19 ± 0.08
70 | UGCCAGCAAUAUUACGGCUA | 0.121 ± 0.12 | 0.121 ± 0.12
71 | ACGCAGCAAUAUUACGCACU | -0.177 ± 0.08 | 0.479 ± 0.11
72 | UGACAGCAAUAUUACGGGAC | -4.05 ± 0.31 | -2.31 ± 0.22
73 | AGUUAGCAAUAUUACGAUGU | -1.48 ± 0.096 | -0.307 ± 0.11
74 | CCCUAGCAAUAUUACGCCCC | -3.88 ± 0.37 | -3.05 ± 0.47
75 | UGUUAGCAAUAUUACGGAUG | -1.89 ± 0.12 | -0.39 ± 0.11
76 | GCAAAGCAAUAUUACGGGGA | -2.9 ± 0.16 | -1.99 ± 0.15
77 | GGCCAGCAAUAUUACGAUGC | -0.639 ± 0.093 | 0.00176 ± 0.11
78 | GCAAAGCAAUAUUACGCACG | -1.83 ± 0.12 | -0.806 ± 0.11
